Experiment [1] deals with FLAG-tagged WAVE2 stably expressed in A431 cells (UniProt Q9Y6W5). Briefly: co-IP.
In experiment [2] the target is Recombinant full-length WAVE2 tagged with GST at its COOH terminus (UniProt Q9Y6W5). The experiment can be described thus: dual polarization interferometry.
Recombinant full-length WAVE2 tagged with GST at its COOH terminus, sequence (Q9Y6W5 whole entry): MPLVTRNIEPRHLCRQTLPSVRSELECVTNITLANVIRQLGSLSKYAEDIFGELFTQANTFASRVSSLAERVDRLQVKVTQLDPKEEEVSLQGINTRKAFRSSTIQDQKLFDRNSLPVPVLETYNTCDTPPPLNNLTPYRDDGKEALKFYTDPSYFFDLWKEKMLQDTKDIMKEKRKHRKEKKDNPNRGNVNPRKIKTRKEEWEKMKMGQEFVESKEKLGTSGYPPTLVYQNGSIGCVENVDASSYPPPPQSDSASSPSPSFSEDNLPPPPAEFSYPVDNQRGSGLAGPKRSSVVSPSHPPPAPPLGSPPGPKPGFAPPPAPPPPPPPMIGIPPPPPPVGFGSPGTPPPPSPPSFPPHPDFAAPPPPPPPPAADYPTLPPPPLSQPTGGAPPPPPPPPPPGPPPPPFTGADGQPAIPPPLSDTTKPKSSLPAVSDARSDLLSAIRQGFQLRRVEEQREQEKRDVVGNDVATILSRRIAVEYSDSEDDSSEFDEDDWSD

FLAG-tagged WAVE2 stably expressed in A431 cells, sequence (Q9Y6W5 whole entry): as above

Consider “IRSp53, endogenous in A431 cells (from UniProt Q9UQB8 1-552) (natural protein)”, for which the molar ratio of IRSp53 to WAVE2 in the purified complex in experiment [1] was determined as 0.0005.
What is called Kd is a measure of binding affinity in units of concentration. In the case of “SH3 domain of IRSp53 (aa 363–521) (from UniProt Q9UQB8 363-521) (domain or fragment)”, the Kd in experiment [2] stood at 5.7 µM.

These data come from publication PMC2063866.
